One series has as its target T1, LmrP (Lactococcus lactis, UniProt Q48658).
T1 construct: full length, 408 residues; His6-tagged (His10-tagged for T331E); plasmid pNZ8084; expressed in L. lactis NZ9000 delta-lmrA delta-lmrCD
Nature of the series: fluorescence anisotropy, purified protein titrated into propidium. The settings on record: 50 mM KPi pH 7.0, 100 mM NaCl, 0.05% DDM; 0.2 or 1 μM propidium. It counts as binding. (In general: Polarisation of emitted light reports the rotation of a fluorescent probe.)

Series [1] concerns CC[N+](C)(CC)CCC[n+]1c(-c2ccccc2)c2cc(N)ccc2c2ccc(N)cc21. Nature of the series: cells, lysate or membranes. The class given is cell-based, Lactococcus lactis. Particulars: 50 mM KPi pH 7.0, 5 mM MgSO4, corrected for influx in cells without LmrP.
Series [2] relates to CC[n+]1c(-c2ccccc2)c2cc(N)ccc2c2ccc(N)cc21. Nature of the series: cells, lysate or membranes. Particulars: 50 mM KPi pH 7.0, 5 mM MgSO4, corrected for influx in cells without LmrP. The class given is cell-based, Lactococcus lactis.

What is called Km is the concentration of substrate that gives half-maximal velocity.

Consider `CC[N+](C)(CC)CCC[n+]1c(-c2ccccc2)c2cc(N)ccc2c2ccc(N)cc21` [propidium], for which, on LmrP, the “fluorescence anisotropy, purified protein titrated into propidium” value is “propidium binding to purified T331E LmrP and WT LmrP was measured by fluorescence anisotropy”.

Consider LmrP (Lactococcus lactis), for which the Michaelis constant (Km) is 1.3 ± 0.2 µM in series [1] and 7.7 ± 5.1 µM in series [2].

The record behind these values is paper PMC5137110, “Relocation of active site carboxylates in major facilitator superfamily multidrug transporter LmrP reveals plasticity in proton interactions” (Scientific Reports, 2016).
